In paper PMC5345052, “Auto-phosphorylation Represses Protein Kinase R Activity” (Scientific Reports, 2017) one finds response data, which are given here for four variants.

To fix the notation:
B1: full-length PKR with N-terminal split Venus V1 tag [human] / truncated PKR kinase domain with N-terminal split Venus V2 tag [human] (parent)
chain 1: MAGDLSAGFFMEELNTYRQKQGVVLKYQELPNSGPPHDRRFTFQVIIDGREFPEGEGRSKKEAKNAAAKLAVEILNKEKKAVSPLLLTTTNSSEGLSMGNYIGLINRIAQKKRLTVNYEQCASGVHGPEGFHYKCKMGQKEYSIGTGSTKQEAKQLAAKLAYLQILSEETSVKSDYLSSGSFATTCESQSNSLVTSTLASESSSEGDFSADTSEINSNSDSLNSSSLLMNGLRNNQRKAKRSLAPRFDLPDMKETKYTVDKRFGMDFKEIELIGSGGFGQVFKAKHRIDGKTYVIKRVKYNNEKAEREVKALAKLDHVNIVHYNGCWDGFDYDPETSDDSLESSDYDPENSKNSSRSKTKCLFIQMEFCDKGTLEQWIEKRRGEKLDKVLALELFEQITKGVDYIHSKKLIHRDLKPSNIFLVDTKQVKIGDFGLVTSLKNDGKRTRSKGTLRYMSPEQISSQDYGKEVDLYALGLILAELLHVCDTAFETSKFFTDLRDGIISDIFDKKEKTLLQKLLSKKPEDRPNTSEILRTLTVWKKSPEKNERHTC
chain 2: TVDKRFGMDFKEIELIGSGGFGQVFKAKHRIDGKTYVIKRVKYNNEKAEREVKALAKLDHVNIVHYNGCWDGFDYDPETSDDSLESSDYDPENSKNSSRSKTKCLFIQMEFCDKGTLEQWIEKRRGEKLDKVLALELFEQITKGVDYIHSKKLIHRDLKPSNIFLVDTKQVKIGDFGLVTSLKNDGKRTRSKGTLRYMSPEQISSQDYGKEVDLYALGLILAELLHVCDTAFETSKFFTDLRDGIISDIFDKKEKTLLQKLLSKKPEDRPNTSEILRTLTVWKKSPEKNERHTC

This assay covers variants of B1. Kind of assay: split Venus fluorescence complementation in HEK293 cells.
Where [1] appears, read: 20 ng/well of each construct, 5 μM of 2AP, n = 3, read off a plot.
Where [2] appears, read: 20 ng/well of each construct, n = 7, read off a plot.

Regarding chain 1 MAGDLSAGFFMEELNTYRQKQGVVLKYQELPNAGPPRDRRFAFQVIIDGREFPEGEGRSKKEAKNAAAKLAVEILNKEKKAVSPLLLTTTNSSEGLSMGNYIGLINRIAQKKRLTVNYEQCASGVHGPEGFHYKCKMGQKEYSIGTGSTKQEAKQLAAKLAYLQILSEETSVKSDYLSSGSFATTCESQSNSLVTSTLASESSSEGDFSADTSEINSNSDSLNSSSLLMNGLRNNQRKAKRSLAPRFDLPDMKETKYTVDKRFGMDFKEIELIGSGGFGQVFKAKHRIDGKTYVIKRVKYNNEKAEREVKALAKLDHVNIVHYNGCWDGFDYDPETSDDSLESSDYDPENSKNSSRSKTKCLFIQMEFCDKGTLEQWIEKRRGEKLDKVLALELFEQITKGVDYIHSKKLIHRDLKPSNIFLVDTKQVKIGDFGLVTSLKNDGKRTRSKGTLRYMSPEQISSQDYGKEVDLYALGLILAELLHVCDTAFETSKFFTDLRDGIISDIFDKKEKTLLQKLLSKKPEDRPNTSEILRTLTVWKKSPEKNERHTC [chain 1 S33A H37R T42A], the response is, setting by setting: under setting [1], 4.7; under setting [2], 3.

In the case of chain 1 MAGDLSAGFFMEELNTYRQKQGVVLKYQELPNEGPPRDRRFEFQVIIDGREFPEGEGRSKKEAKNAAAKLAVEILNKEKKAVSPLLLTTTNSSEGLSMGNYIGLINRIAQKKRLTVNYEQCASGVHGPEGFHYKCKMGQKEYSIGTGSTKQEAKQLAAKLAYLQILSEETSVKSDYLSSGSFATTCESQSNSLVTSTLASESSSEGDFSADTSEINSNSDSLNSSSLLMNGLRNNQRKAKRSLAPRFDLPDMKETKYTVDKRFGMDFKEIELIGSGGFGQVFKAKHRIDGKTYVIKRVKYNNEKAEREVKALAKLDHVNIVHYNGCWDGFDYDPETSDDSLESSDYDPENSKNSSRSKTKCLFIQMEFCDKGTLEQWIEKRRGEKLDKVLALELFEQITKGVDYIHSKKLIHRDLKPSNIFLVDTKQVKIGDFGLVTSLKNDGKRTRSKGTLRYMSPEQISSQDYGKEVDLYALGLILAELLHVCDTAFETSKFFTDLRDGIISDIFDKKEKTLLQKLLSKKPEDRPNTSEILRTLTVWKKSPEKNERHTC [chain 1 S33E H37R T42E], the response under setting [1] amounted to 2.9 and the response under setting [2] worked out at 2.5.

Take chain 1 MAGDLSAGFFMEELNTYRQKQGVVLKYQELPNSGPPRDRRFTFQVIIDGREFPEGEGRSKKEAKNAAAKLAVEILNKEKKAVSPLLLTTTNSSEGLSMGNYIGLINRIAQKKRLTVNYEQCASGVHGPEGFHYKCKMGQKEYSIGTGSTKQEAKQLAAKLAYLQILSEETSVKSDYLSSGSFATTCESQSNSLVTSTLASESSSEGDFSADTSEINSNSDSLNSSSLLMNGLRNNQRKAKRSLAPRFDLPDMKETKYTVDKRFGMDFKEIELIGSGGFGQVFKAKHRIDGKTYVIKRVKYNNEKAEREVKALAKLDHVNIVHYNGCWDGFDYDPETSDDSLESSDYDPENSKNSSRSKTKCLFIQMEFCDKGTLEQWIEKRRGEKLDKVLALELFEQITKGVDYIHSKKLIHRDLKPSNIFLVDTKQVKIGDFGLVTSLKNDGKRTRSKGTLRYMSPEQISSQDYGKEVDLYALGLILAELLHVCDTAFETSKFFTDLRDGIISDIFDKKEKTLLQKLLSKKPEDRPNTSEILRTLTVWKKSPEKNERHTC [chain 1 H37R]: the response is 2.7 under setting [1] and 2.5 under setting [2].

For the variant chain 2 TVDKRFGMDFKEIELIGSGGFGQVFKAKHRIDGKTYVIRRVKYNNEKAEREVKALAKLDHVNIVHYNGCWDGFDYDPETSDDSLESSDYDPENSKNSSRSKTKCLFIQMEFCDKGTLEQWIEKRRGEKLDKVLALELFEQITKGVDYIHSKKLIHRDLKPSNIFLVDTKQVKIGDFGLVTSLKNDGKRTRSKGTLRYMSPEQISSQDYGKEVDLYALGLILAELLHVCDTAFETSKFFTDLRDGIISDIFDKKEKTLLQKLLSKKPEDRPNTSEILRTLTVWKKSPEKNERHTC [chain 2 K39R], the response (20 ng/well of full-length PKR and 30 ng/well of the truncated KD, n = 7, read off a plot) worked out at 4.2.
